Where “and” joins values, the source holds several entries; their conditions need not be identical. Identical values can stand only once.
Key:
[1] = substrate: O=C(O)CCC(=O)C(=O)O; assay: purified protein, by the assay type; conditions: other: reverse assay
[2] = substrate: N[C@@H](CCC[C@H](N)C(=O)O)C(=O)O; assay: purified protein, by the assay type; conditions: other: reverse assay
[3] = substrate: O=C(O)C1=N[C@H](C(=O)O)CCC1; assay: purified protein, by the assay type; conditions: other: forward assay
[4] = substrate: N[C@@H](CCC(=O)O)C(=O)O; assay: purified protein, by the assay type; conditions: other: forward assay
[5] = substrate: O=C(O)C1=N[C@H](C(=O)O)CCC1; assay: Quantitative forward and reverse assays of purified LL-DAP transaminases (Example III); format: biochemical, Syntrophobacter fumaroxidans MPOB; conditions: other: forward assay
[6] = substrate: N[C@@H](CCC(=O)O)C(=O)O; assay: as above; format: biochemical, Syntrophobacter fumaroxidans MPOB; conditions: other: forward assay
[7] = substrate: N[C@@H](CCC[C@H](N)C(=O)O)C(=O)O; assay: as above; format: biochemical, Bacteroides fragilis NCTC9343; conditions: other: reverse assay
Source text: (§1) All orfs were processed identically for expression in E. coli. The orfs were amplified by PCR using the indicated primers. The resulting DNA fragment was digested with BamHI and SalI and cloned into pET30b. The pET30b clone was sequenced. This plasmid was transformed into E. coli BL21-CodonPlus®-RIPL for expression and purification of the recombinant protein. For functional complementation experiments, the expression cassette was subcloned from pET30b into pBAD33 (Guzman et al., 1995) using XbaI and SalI. Using these enzymes the expression cassette included the entire orf, the His-Tag coding sequence and the ribosome binding site from pET30b. pBAD33 provided an arabinose-regulated promoter.
(§2) For protein expression the E. coli strains were grown on LB at 37° C. to an OD600 nm of 0.5 and protein expression was then induced with 1 mM IPTG for 4 hr at 25° C. Cells were lysed by sonication in a solution of 50 mM sodium phosphate and 300 mM NaCl (pH 8.0). Metabolites in the extract were removed by buffer exchange using an Amicon Ultra 30,000 MWCO ultrafilter and sodium phosphate/NaCl buffer, and the concentrated soluble protein sample was used for measurement of enzyme activity as an initial assessment of enzyme function. When the recombinant protein was to be purified a larger cell culture was grown and lysed as described above, but the buffer exchange step was not carried out. […] The pure protein was then concentrated in an Amicon Ultra 30,000 MWCO ultrafilter, replacing the elution buffer with 100 mM HepesKOH, pH 7.6.
(§3) Enzyme assays were performed as described above in Examples I and II.
(§4) The catalytic properties of sll0480, BF2643, Dhaf—3980, MTH52, and SfumDRAFT0821 were studied in greater detail using purified enzymes to determine their kinetic constants using quantitative forward and reverse assays.

[8] = substrate: O=C(O)C1=N[C@H](C(=O)O)CCC1; assay: as above; format: biochemical, Bacteroides fragilis NCTC9343; conditions: other: forward assay
Source text: as §1, §2, §3, §4

[9] = substrate: N[C@@H](CCC(=O)O)C(=O)O; assay: as above; format: biochemical, Bacteroides fragilis NCTC9343; conditions: other: forward assay
Source text: as §1, §2, §3, §4

[10] = Ddh-coupled, pH 7.5, 30° C., apparent Km, pH 7.5, 30.0 °C
[11] = coupled with 2-OG dehydrogenase, pH 7.5, apparent Km, pH 7.5, 30.0 °C

B1: Arabidopsis thaliana LL-DAP-AT (At4g33680), wild type, recombinant (lacks first 39 amino acids, hexa-His and S-TAG), SEQ ID NO: 7 (Arabidopsis thaliana) (protein)
chain: VNTCKCVATPQEKIEYKTKVSRNSNMSKLQAGYLFPEIARRRSAHLLKYPDAQVISLGIGDTTEPIPEVITSAMAKKAHELSTIEGYSGYGAEQGAKPLRAAIAKTFYGGLGIGDDDVFVSDGAKCDISRLQVMFGSNVTIAVQDPSYPAYVDSSVIMGQTGQFNTDVQKYGNIEYMRCTPENGFFPDLSTVGRTDIIFFCSPNNPTGAAATREQLTQLVEFAKKNGSIIVYDSAYAMYMSDDNPRSIFEIPGAEEVAMETASFSKYAGFTGVRLGWTVIPKKLLYSDGFPVAKDFNRIICTCFNGASNISQAGALACLTPEGLEAMHKVIGFYKENTNIIIDTFTSLGYDVYGGKNAPYVWVHFPNQSSWDVFAEILEKTHVVTTPGSGFGPGGEGFVRVSAFGHRENILEACRRFKQLYK
In the case of B1, the Km [1, 10] is reported as 8300 µM and 8700 ± 300 µM, the Km [2, 10] is reported as 67 ± 2 µM and the Km [3, 11] is reported as 38 ± 4 µM. It also gave a Km ([4]; coupled with 2-OG dehydrogenase, pH 7.5, apparent Km, pH 7.5) of 2000 µM and a Km [4, 11] of 1900 ± 100 µM.

B2: Arabidopsis thaliana LL-DAP transaminase At4g33680, SEQ ID NO: 7 (Arabidopsis thaliana) (protein)
chain: VNTCKCVATPQEKIEYKTKVSRNSNMSKLQAGYLFPEIARRRSAHLLKYPDAQVISLGIGDTTEPIPEVITSAMAKKAHELSTIEGYSGYGAEQGAKPLRAAIAKTFYGGLGIGDDDVFVSDGAKCDISRLQVMFGSNVTIAVQDPSYPAYVDSSVIMGQTGQFNTDVQKYGNIEYMRCTPENGFFPDLSTVGRTDIIFFCSPNNPTGAAATREQLTQLVEFAKKNGSIIVYDSAYAMYMSDDNPRSIFEIPGAEEVAMETASFSKYAGFTGVRLGWTVIPKKLLYSDGFPVAKDFNRIICTCFNGASNISQAGALACLTPEGLEAMHKVIGFYKENTNIIIDTFTSLGYDVYGGKNAPYVWVHFPNQSSWDVFAEILEKTHVVTTPGSGFGPGGEGFVRVSAFGHRENILEACRRFKQLYK
With B2 the Km [1] was 1400 µM, the Km [2] was 62 µM and the Km [3] was 25 µM. The Km [4] was 1400 µM.

B3: Syntrophobacter fumaroxidans LL-DAP transaminase SfumDRAFT_0821 (Syntrophobacter fumaroxidans MPOB) (protein)
chain: MAFVKAERLKLLPPYLFQEIDRLKAELTAKGVDVINLGVGDPDLPTPDHIIARLKTAAEDPSTHQYPSYSGMNDFKVSVAGWYKRRFGVELDPLSEVLTLIGSKEGLAHFPLAVINPGDLALVPTPAYPVYHVATMFAGGESYFMPLVRENGFLPDLDSIPADVARRAKVMFINYPNNPTGATAERDFFEKVIAFAREYDVIVCHDAAYTEMAFGGYRPLSFLELPGAGEVGVEFHSLSKTYNMTGWRLGFAVGNADILAGLGQVKSNIDSGAFNAVQWAGITALEGDQGCVVEMQRIYKERLDILIEGLKRIGLHPEVPRATFYVWCPTPPGYSSKDFSSLLLREAGIVATPGSGFGAPGEGYIRMALTVDKERVREAVERMRKLSF
B3 was tested, and the Km [1] was 700 µM, the Km [2] was 29 µM and the Km [5] was 12 µM. It also gave a Km [6] of 700 µM.

B4: Bacteroides fragilis LL-DAP transaminase Bf2643 (Bacteroides fragilis YCH46) (protein)
chain: MALVNEHFLKLPGSYLFSDIAKKVNTFKITHPKRDIIRLGIGDVTRPLPKACIEAMHKAVEEMTSAETFRGYGPEQGYDFLIEAIIKNDYAPRGIHLSPTEVFVNDGAKSDTGNIGDILRHDNSVGVTDPIYPVYIDSNVMCGRAGVLDTESGKWSNVTYMPCTAENHFIPAIPEKRIDIVYLCYPNNPTGTTLTKAELKKWVDYALANDTLILFDAAYEAYIREPDIPHSIYEIKGAKKCAIEFRSFSKTAGFTGVRCGYTVVPKELTAATLEGERIPLNRLWNRRQCTKFNGTSYITQRAAEAIYTPEGKEQIQETINYYMTNARIMKEGLESTGLKVYGGVNAPYLWVKTPNGTSSWRFFDQMLYEANVVGTPGVGFGPSGEGYIRLTAFGERDDCIEAMRRIKNRL
With B4 the Km [7] was 10 µM, the Km [8] was 96 µM and the Km [9] was 1300 µM. It also gave a Km [1] of 1200 µM.
